Results reported in patent US20080227698A1, “OLIGOPEPTIDES FOR TREATMENT OF OSTEOPOROSIS AND OTHER BONE DISEASES AND METHODS THEREOF” (Washington University, priority 2005, published 2008).

How the values were obtained:
[1] = target: T1, other members of the LDLR family (LDLR, LRP, LRP1 B, VLDLR, apoER2) (Homo sapiens, UniProt Q07954); assay: ^125I-Mesd binding to cells expressing other members of the LDLR family; settings: ^125I-Mesd 5 nM, 4 hours at 4° C.
T1 construct: expressed in transfected cells; host or cells: HEK293 (transient HA-LDLR); also endogenous receptors in MEF lines, MCF-7, U87 and SMC
Description: (§1) Cells (2×10^5) were seeded into 12-well dishes 1 day prior to assay. Ligand-binding buffer (minimal Eagle's medium containing 0.6% BSA with a different concentration of radioligand, 0.6 ml/well) was added to cell monolayers, in the absence or the presence of 500 nM unlabeled RAP or 500 nM unlabeled Mesd, followed with incubation for 0-4 hours at 4° C. Thereafter, overlying buffer containing unbound ligand was removed, and cell monolayers were washed and lysed in low-SDS lysis buffer (62.5 mM Tris-HCl pH 6.8, 0.2% SDS, 10% v/glycerol) and counted.
(§2) To determine whether Mesd binds to other members of the LDLR family, ^125I-Mesd binding analysis was performed with four groups of cells expressing different members of the LDLR family (FIG. 2). In the first experiment, HEK293 cells were transiently transfected with cDNAs for the LDLR, LRP5, LRP6 or empty pcDNA3 vector. […]

[2] = system: other members of the LDLR family (LDLR, LRP, LRP1 B, VLDLR, apoER2); assay: as above; design: species or system human; settings: ^125I-Mesd 5 nM, 4 hours at 4° C., HEK293, CHO, MEF cells
Description: as §1, §2

[3] = system: Wnt signaling; assay: Wnt signalling TCF/LEF-Luc assay in HEK293 cells (Wnt3A conditioned medium plus Dkk1); assay type: cell-based; settings: Wnt3A conditioned medium plus Dkk1 protein at 10 nM
Description: HEK293 cells were plated into six-well plates. For each well, […] of the TOP-[…] luciferase construct (Upstate Biotechnology) was cotransfected with 0.8 μg Mesd-expressing vector, 0.8 μg Mesd mutant-expressing vector, or empty vector. A β-galactosidase-expressing vector (Promega, Madison, Wis.) was included as an internal control for transfection efficiency. After 48 hours, cells were lysed and both luciferase and β-galactosidase activities were determined with enzyme assay kits (Promega). The luciferase activity was determined with a luminometer using the Dual Luciferase Assay system (Promega). Luciferase activity was normalized to the activity of the P-galactosidase.

T1 sequence (Q07954 20-4544): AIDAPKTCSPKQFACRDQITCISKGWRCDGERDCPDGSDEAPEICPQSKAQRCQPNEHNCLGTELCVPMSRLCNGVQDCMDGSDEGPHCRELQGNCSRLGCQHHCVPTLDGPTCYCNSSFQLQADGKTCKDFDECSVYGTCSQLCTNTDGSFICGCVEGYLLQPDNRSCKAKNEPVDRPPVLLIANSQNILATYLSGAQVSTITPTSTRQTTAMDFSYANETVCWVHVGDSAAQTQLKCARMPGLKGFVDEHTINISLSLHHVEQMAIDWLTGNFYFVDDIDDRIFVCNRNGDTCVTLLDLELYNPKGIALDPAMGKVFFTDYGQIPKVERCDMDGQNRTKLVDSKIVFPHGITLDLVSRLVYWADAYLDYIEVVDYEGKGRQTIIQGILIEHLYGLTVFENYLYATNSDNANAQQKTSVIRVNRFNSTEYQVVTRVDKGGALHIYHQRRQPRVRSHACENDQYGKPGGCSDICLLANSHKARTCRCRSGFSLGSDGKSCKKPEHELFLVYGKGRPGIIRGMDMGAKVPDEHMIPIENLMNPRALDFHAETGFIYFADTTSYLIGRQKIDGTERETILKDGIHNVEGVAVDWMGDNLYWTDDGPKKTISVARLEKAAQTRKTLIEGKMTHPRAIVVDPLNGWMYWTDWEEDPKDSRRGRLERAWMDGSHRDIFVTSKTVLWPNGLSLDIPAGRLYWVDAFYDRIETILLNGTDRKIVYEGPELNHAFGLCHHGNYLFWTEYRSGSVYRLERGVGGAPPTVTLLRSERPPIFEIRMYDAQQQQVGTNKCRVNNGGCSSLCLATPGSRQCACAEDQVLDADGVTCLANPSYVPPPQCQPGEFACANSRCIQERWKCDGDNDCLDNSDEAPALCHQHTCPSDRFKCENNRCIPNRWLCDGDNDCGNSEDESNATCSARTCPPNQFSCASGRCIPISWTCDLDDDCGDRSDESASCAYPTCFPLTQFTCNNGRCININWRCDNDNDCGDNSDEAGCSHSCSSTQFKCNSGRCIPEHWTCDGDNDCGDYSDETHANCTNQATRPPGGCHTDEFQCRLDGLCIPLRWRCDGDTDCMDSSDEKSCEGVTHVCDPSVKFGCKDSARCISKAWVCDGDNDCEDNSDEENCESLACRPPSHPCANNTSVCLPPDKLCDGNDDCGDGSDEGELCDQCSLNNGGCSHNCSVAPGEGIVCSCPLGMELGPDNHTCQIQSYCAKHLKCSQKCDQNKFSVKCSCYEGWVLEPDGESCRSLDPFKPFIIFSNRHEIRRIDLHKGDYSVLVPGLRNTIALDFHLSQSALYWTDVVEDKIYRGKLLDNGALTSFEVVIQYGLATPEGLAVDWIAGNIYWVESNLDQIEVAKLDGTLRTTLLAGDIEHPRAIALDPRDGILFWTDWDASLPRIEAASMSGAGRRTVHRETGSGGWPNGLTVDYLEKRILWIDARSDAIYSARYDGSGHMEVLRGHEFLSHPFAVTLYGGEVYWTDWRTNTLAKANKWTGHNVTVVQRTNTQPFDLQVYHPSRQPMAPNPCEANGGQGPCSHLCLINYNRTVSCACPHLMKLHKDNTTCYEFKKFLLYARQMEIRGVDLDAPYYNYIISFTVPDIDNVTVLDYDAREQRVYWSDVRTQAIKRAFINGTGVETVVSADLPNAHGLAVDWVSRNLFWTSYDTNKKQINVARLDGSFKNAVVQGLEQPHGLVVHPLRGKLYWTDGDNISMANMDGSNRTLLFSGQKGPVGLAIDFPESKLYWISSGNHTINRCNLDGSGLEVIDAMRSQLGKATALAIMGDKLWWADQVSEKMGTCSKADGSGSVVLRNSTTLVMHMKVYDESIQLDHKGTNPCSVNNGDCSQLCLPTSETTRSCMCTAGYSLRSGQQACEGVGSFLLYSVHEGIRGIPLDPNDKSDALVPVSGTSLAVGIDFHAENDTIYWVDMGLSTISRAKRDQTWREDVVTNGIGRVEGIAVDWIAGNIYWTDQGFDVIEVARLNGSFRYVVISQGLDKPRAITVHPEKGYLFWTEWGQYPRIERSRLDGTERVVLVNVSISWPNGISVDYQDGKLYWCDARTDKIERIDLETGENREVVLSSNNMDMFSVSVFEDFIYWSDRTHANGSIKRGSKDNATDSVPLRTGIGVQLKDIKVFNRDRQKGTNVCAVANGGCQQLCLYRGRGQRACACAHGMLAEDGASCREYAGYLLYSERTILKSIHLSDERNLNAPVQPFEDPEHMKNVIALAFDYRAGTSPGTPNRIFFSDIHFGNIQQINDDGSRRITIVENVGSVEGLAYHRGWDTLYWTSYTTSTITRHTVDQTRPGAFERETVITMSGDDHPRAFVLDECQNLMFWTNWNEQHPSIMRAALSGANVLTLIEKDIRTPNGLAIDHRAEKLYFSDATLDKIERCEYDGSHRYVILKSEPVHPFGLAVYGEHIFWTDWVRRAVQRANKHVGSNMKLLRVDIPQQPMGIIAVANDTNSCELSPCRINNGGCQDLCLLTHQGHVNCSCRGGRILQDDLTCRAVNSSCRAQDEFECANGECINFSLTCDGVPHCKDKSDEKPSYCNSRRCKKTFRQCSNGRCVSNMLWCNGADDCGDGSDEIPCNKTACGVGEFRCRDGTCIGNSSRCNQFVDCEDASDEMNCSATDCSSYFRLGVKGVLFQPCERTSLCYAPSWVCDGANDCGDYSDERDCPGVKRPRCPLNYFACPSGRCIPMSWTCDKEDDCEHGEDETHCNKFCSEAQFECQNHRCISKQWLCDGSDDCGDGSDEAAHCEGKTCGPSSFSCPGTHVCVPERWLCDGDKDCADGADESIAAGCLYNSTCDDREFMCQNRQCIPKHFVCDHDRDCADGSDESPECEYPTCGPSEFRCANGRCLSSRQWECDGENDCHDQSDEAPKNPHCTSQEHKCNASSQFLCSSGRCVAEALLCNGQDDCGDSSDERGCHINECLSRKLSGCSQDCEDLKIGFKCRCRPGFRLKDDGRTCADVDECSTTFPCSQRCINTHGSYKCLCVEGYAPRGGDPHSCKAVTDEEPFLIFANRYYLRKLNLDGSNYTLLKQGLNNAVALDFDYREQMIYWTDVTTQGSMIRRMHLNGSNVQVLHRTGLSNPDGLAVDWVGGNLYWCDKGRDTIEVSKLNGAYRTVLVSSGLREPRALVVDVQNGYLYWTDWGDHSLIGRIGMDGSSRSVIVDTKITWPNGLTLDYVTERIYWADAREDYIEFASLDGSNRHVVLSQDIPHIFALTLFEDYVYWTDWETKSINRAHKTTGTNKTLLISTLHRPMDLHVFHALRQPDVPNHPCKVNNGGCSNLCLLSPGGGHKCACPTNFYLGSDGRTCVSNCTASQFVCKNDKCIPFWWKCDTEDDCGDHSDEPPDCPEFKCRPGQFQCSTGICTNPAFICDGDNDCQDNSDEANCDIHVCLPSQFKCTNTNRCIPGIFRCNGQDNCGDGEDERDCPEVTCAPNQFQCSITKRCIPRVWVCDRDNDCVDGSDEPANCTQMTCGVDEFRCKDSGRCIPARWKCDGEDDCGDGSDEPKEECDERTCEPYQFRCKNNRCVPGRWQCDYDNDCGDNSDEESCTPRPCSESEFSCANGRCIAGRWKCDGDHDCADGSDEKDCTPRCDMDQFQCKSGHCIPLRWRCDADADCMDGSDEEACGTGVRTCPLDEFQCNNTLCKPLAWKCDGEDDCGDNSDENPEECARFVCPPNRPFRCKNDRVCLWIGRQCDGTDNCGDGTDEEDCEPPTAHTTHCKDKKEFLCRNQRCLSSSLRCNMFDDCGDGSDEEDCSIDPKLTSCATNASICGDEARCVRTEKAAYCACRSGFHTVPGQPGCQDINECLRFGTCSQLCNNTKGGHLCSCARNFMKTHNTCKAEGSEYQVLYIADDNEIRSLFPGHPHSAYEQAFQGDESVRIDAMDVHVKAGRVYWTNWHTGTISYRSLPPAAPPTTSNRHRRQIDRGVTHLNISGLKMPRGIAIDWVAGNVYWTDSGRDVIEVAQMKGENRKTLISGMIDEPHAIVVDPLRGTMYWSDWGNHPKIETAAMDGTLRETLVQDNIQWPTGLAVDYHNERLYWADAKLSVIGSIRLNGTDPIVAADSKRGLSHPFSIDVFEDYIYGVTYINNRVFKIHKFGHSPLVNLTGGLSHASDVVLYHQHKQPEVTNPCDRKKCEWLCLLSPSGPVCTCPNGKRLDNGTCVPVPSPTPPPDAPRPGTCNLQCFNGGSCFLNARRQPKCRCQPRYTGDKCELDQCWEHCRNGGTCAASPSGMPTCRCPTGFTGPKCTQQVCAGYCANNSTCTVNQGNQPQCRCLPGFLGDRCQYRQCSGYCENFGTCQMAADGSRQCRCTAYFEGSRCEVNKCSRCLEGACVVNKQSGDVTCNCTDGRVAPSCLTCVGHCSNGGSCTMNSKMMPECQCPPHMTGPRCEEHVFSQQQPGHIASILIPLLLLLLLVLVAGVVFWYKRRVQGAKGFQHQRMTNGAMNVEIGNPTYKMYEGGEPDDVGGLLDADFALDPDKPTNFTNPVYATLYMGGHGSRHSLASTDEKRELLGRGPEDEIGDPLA

- Specific Mesd binding to U87 or SMC (express abundant LRP) [1]: minimal
B1: Mesd: recombinant wild-type mouse Mesd, polyhistidine tail at the N-terminus, lacks the signal peptide, expressed in E. coli (protein)
chain: ADTPGEATPPPRKKKDIRDYNDADMARLLEQWEKDDDIEEGDLPEHKRPSAPIDFSKLDPGKPESILKMTKKGKTLMMFVTVSGNPTEKETEEITSLWQGSLFNANYDVQRFIVGSDRAIFMLRDGSYAWEIKDFLVSQDRCAEVTLEGQMYPGKGGGSKEKNKTKPEKAKKKEGDRKPRASKEDNRAGSRREDL
modifications: left off: small tags and cut ends
notes: recombinant wild-type mouse Mesd, polyhistidine tail at the N-terminus, lacks the signal peptide, expressed in E. coli
- ^125I-Mesd binding to other members of the LDLR family [2]: not significantly
- Restoring of Wnt signaling inhibited by Dkk1 (luciferase activity) [3]: at least partially restoring Wnt signaling
